Experimental data taken from the Immune Epitope Database (IEDB).
Each block holds one sequence with its values, some of them ahead of it.

How the values were obtained:
[1] = biological target: HLA-B*44:03; experiment: IEDB peptide-MHC binding, purified MHC/competitive/radioactivity; filed as Kd, often an IC50 or EC50 that approximates it; ≥ and ≤ were set here for values at or beyond the usual limits of such assays
[2] = biological target: HLA-B*15:01; experiment: as above; conditions: source organism: Dengue virus 1 Brazil/97-11/1997
[3] = biological target: HLA-B*08:01; experiment: IEDB peptide-MHC binding, purified MHC/direct/fluorescence; filed as Kd, often an IC50 or EC50 that approximates it; ≥ and ≤ were set here for values at or beyond the usual limits of such assays
[4] = biological target: HLA-A*26:01; experiment: as above
[5] = biological target: HLA-A*01:01; experiment: as above; conditions: source organism: Bacillus anthracis
[6] = biological target: HLA-A*69:01; experiment: as above
[7] = biological target: HLA-B*27:05; experiment: as above
[8] = biological target: HLA-A*31:01; experiment: as above
[9] = biological target: HLA-A*11:01; experiment: as above
[10] = biological target: HLA-B*58:01; experiment: as above
[11] = biological target: HLA-B*40:01; experiment: as above
[12] = biological target: HLA-A*02:01; experiment: as above
[13] = biological target: HLA-B*44:02; experiment: as above
[14] = biological target: HLA-B*07:02; experiment: as above
[15] = biological target: HLA-B*15:01; experiment: as above
[16] = biological target: HLA-A*03:01; experiment: as above
[17] = biological target: HLA-B*51:01; experiment: IEDB peptide-MHC binding, purified MHC/competitive/radioactivity; filed as Kd, often an IC50 or EC50 that approximates it; ≥ and ≤ were set here for values at or beyond the usual limits of such assays
[18] = biological target: HLA-B*54:01; experiment: as above
[19] = biological target: HLA-B*53:01; experiment: as above
[20] = biological target: HLA-B*35:01; experiment: as above
[21] = biological target: HLA-B*07:02; experiment: as above
[22] = biological target: HLA-A*26:01; experiment: IEDB peptide-MHC binding, purified MHC/competitive/fluorescence; filed as Kd, often an IC50 or EC50 that approximates it; ≥ and ≤ were set here for values at or beyond the usual limits of such assays
[23] = biological target: HLA-B*18:01; experiment: IEDB peptide-MHC binding, purified MHC/direct/fluorescence; filed as Kd, often an IC50 or EC50 that approximates it; ≥ and ≤ were set here for values at or beyond the usual limits of such assays
[24] = biological target: HLA-A*24:03; experiment: as above
[25] = biological target: HLA-B*40:01; experiment: IEDB peptide-MHC binding, purified MHC/competitive/radioactivity; filed as Kd, often an IC50 or EC50 that approximates it; ≥ and ≤ were set here for values at or beyond the usual limits of such assays
[26] = biological target: HLA-A*03:01; experiment: IEDB peptide-MHC binding, purified MHC/competitive/fluorescence; filed as Kd, often an IC50 or EC50 that approximates it; ≥ and ≤ were set here for values at or beyond the usual limits of such assays
[27] = biological target: HLA-A*33:01; experiment: IEDB peptide-MHC binding, purified MHC/competitive/radioactivity; filed as Kd, often an IC50 or EC50 that approximates it; ≥ and ≤ were set here for values at or beyond the usual limits of such assays; conditions: source organism: Vaccinia virus WR
[28] = biological target: HLA-A*68:01; experiment: as above; conditions: source organism: Vaccinia virus WR
[29] = biological target: HLA-A*31:01; experiment: as above; conditions: source organism: Vaccinia virus WR
[30] = biological target: HLA-A*11:01; experiment: as above; conditions: source organism: Vaccinia virus WR
[31] = biological target: HLA-A*03:01; experiment: as above; conditions: source organism: Vaccinia virus WR
[32] = source organism: Dengue virus 1 Brazil/97-11/1997
[33] = source organism: Bacillus anthracis
[34] = source organism: Mammarenavirus juninense
[35] = source organism: SARS coronavirus Tor2
[36] = source organism: Triticum aestivum
[37] = source organism: Aggregatibacter actinomycetemcomitans
[38] = source organism: Dengue virus 2 Jamaica/1409/1983
[39] = source organism: Lymphocytic choriomeningitis virus (strain Armstrong)
[40] = source organism: Dengue virus 3 Martinique/1243/1999
[41] = source organism: dengue virus type 2
[42] = source organism: Mammarenavirus lassaense
[43] = source organism: Influenza A virus (A/SW/MN/3227/00(H1N2))
[44] = source organism: Mammarenavirus machupoense
[45] = source organism: Vaccinia virus WR
[46] = source organism: Salmonella enterica

Sequence: QQVPFCSHHF
Kd [1, 32]: 272 nM | Kd [2]: 13.9 nM

Sequence: FIFGKMGAG
Kd [3, 33]: ≥ 20000 nM | Kd [4, 33]: 5370 nM | Kd [5]: ≥ 20000 nM | Kd [6, 33]: ≥ 20000 nM | Kd [7, 33]: ≥ 20000 nM | Kd [8, 33]: ≥ 20000 nM | Kd [9, 33]: ≥ 20000 nM | Kd [10, 33]: ≥ 20000 nM | Kd [11, 33]: ≥ 20000 nM | Kd [12, 33]: ≥ 20000 nM | Kd [13, 33]: ≥ 20000 nM | Kd [14, 33]: ≥ 20000 nM | Kd [15, 33]: ≥ 20000 nM | Kd [16, 33]: ≥ 20000 nM

Sequence: MPGVLSYVV
Kd [17, 34]: 208 nM | Kd [18, 34]: 0.507 nM | Kd [19, 34]: 187 nM | Kd [20, 34]: 22.2 nM | Kd [21, 34]: 1030 nM

Sequence: RPLMESELVI
Kd [17, 35]: 32.9 nM | Kd [18, 35]: ≥ 46000 nM | Kd [19, 35]: 217 nM | Kd [20, 35]: 395 nM | Kd [21, 35]: 666 nM

Kd ([22]; source organism: Escherichia coli): ≥ 20000 nM
Sequence: DVSEQLELI

Sequence: VEEDIRWKF
Kd ([23]; source organism: Bacillus cereus): 19.2 nM

Kd [17, 36]: ≥ 41300 nM | Kd [18, 36]: ≥ 27700 nM | Kd [19, 36]: ≥ 63700 nM | Kd [20, 36]: ≥ 63700 nM | Kd [21, 36]: 4470 nM
Sequence: PPYCTIAPVGI

Sequence: FPLNSKVKVI
Kd [17, 35]: 4710 nM | Kd [18, 35]: 927 nM | Kd [19, 35]: 1070 nM | Kd [20, 35]: ≥ 29400 nM | Kd [21, 35]: ≥ 33400 nM

Kd [3, 37]: ≥ 20000 nM | Kd [4, 37]: ≥ 20000 nM | Kd [6, 37]: ≥ 20000 nM | Kd [7, 37]: ≥ 20000 nM | Kd [8, 37]: ≥ 20000 nM | Kd [9, 37]: ≥ 20000 nM | Kd [10, 37]: ≥ 20000 nM | Kd [11, 37]: ≥ 20000 nM | Kd [12, 37]: ≥ 20000 nM | Kd [24, 37]: ≥ 20000 nM | Kd [14, 37]: ≥ 20000 nM | Kd [15, 37]: ≥ 20000 nM | Kd [16, 37]: ≥ 20000 nM
Sequence: KYDDRIQSQ

Sequence: LEFFLIVLLI
Kd [1, 38]: 2480 nM | Kd [25, 38]: 650 nM

Sequence: EPVPLTVKM
Kd [17, 39]: 12700 nM | Kd [18, 39]: ≥ 69500 nM | Kd [19, 39]: 327 nM | Kd [20, 39]: 63.4 nM | Kd [21, 39]: 15000 nM

Sequence: FPNITNLCPF
Kd [17, 35]: 6.33 nM | Kd [18, 35]: 445 nM | Kd [19, 35]: 0.782 nM | Kd [20, 35]: 1.66 nM | Kd [21, 35]: 56.6 nM

Sequence: ADTGCAVSW
Kd ([1]; source organism: Dengue virus 4 Philippines/H241/1956): 224 nM

Sequence: MVFVELPSK
Kd ([26]; source organism: Bacillus anthracis str. A0488): 101 nM

Sequence: SVYGLMGFH
Kd ([26]; source organism: Canarypox virus): 29.2 nM

Sequence: AMSTWSFYH
Kd ([26]; source organism: Yersinia pestis Nepal516): 13.3 nM

Sequence: EESRTIRVL
Kd [1, 40]: 30.2 nM | Kd [25, 40]: 249 nM

Sequence: NSIPAVIGY
Kd ([22]; source organism: Kurkino virus): 420 nM

Sequence: RLNPMHQLLR
Kd ([26]; source organism: Influenza A virus H3N2): 805 nM

Sequence: EEEQTLTIL
Kd [23, 41]: 4020 nM | Kd [13, 41]: ≥ 20000 nM

Sequence: AVLPRDMVF
Kd [24, 42]: 110 nM

Sequence: LEESHPGIF
Kd [11, 43]: 85.3 nM | Kd [13, 43]: ≥ 20000 nM

Kd ([26]; source organism: Fusobacterium vincentii ATCC 49256): 39.5 nM
Sequence: FSFGDYFKK

Sequence: APSASAFFGM
Kd [17, 35]: 1990 nM | Kd [18, 35]: ≥ 42700 nM | Kd [19, 35]: 4110 nM | Kd [20, 35]: 2140 nM | Kd [21, 35]: 122 nM

Sequence: LPTSITVPV
Kd [17, 44]: 1970 nM | Kd [18, 44]: 4.01 nM | Kd [19, 44]: 72.5 nM | Kd [20, 44]: 3.55 nM | Kd [21, 44]: 67.1 nM

Sequence: MEHKYSWKS
Kd [1, 32]: 1000 nM

Sequence: MPSACANGWI
Kd [17, 45]: ≥ 43500 nM | Kd [18, 45]: 5400 nM | Kd [19, 45]: 5240 nM | Kd [20, 45]: ≥ 69900 nM | Kd [21, 45]: ≥ 31400 nM

Sequence: HVDGKILFV
Kd [27]: ≥ 77700 nM | Kd [17, 45]: ≥ 68500 nM | Kd [18, 45]: ≥ 78100 nM | Kd [19, 45]: 11500 nM | Kd [28]: ≥ 77700 nM | Kd [20, 45]: ≥ 77400 nM | Kd [29]: ≥ 40500 nM | Kd [30]: ≥ 72300 nM | Kd [21, 45]: ≥ 77500 nM | Kd [31]: 3140 nM

Kd [17, 36]: 67.7 nM | Kd [18, 36]: ≥ 87700 nM | Kd [19, 36]: ≥ 49100 nM | Kd [20, 36]: 17100 nM | Kd [21, 36]: 3680 nM
Sequence: IPCRDVVL

Kd [17, 36]: 9.22 nM | Kd [18, 36]: 8530 nM | Kd [19, 36]: 4.49 nM | Kd [20, 36]: 0.487 nM | Kd [21, 36]: 4330 nM
Sequence: LPYPQPQLPY

Sequence: FPPTSFGPLV
Kd [17, 35]: 6260 nM | Kd [18, 35]: 1260 nM | Kd [19, 35]: 4860 nM | Kd [20, 35]: ≥ 24700 nM | Kd [21, 35]: 2080 nM

Sequence: KPLLAPHHVV
Kd [17, 35]: ≥ 69600 nM | Kd [18, 35]: 7250 nM | Kd [19, 35]: ≥ 69900 nM | Kd [20, 35]: ≥ 69900 nM | Kd [21, 35]: 179 nM

Sequence: FPDIPVNNNI
Kd [17, 45]: 66.7 nM | Kd [18, 45]: 69.3 nM | Kd [19, 45]: 1.22 nM | Kd [20, 45]: 442 nM | Kd [21, 45]: 821 nM

Sequence: KLFFQVIAK
Kd ([26]; source organism: Yersinia pestis Antiqua): 6.5 nM

Sequence: DPVYISQFSY
Kd [17, 45]: ≥ 69600 nM | Kd [18, 45]: ≥ 38600 nM | Kd [19, 45]: 10500 nM | Kd [20, 45]: 928 nM | Kd [21, 45]: ≥ 69600 nM

Sequence: NERWFREVI
Kd [23, 46]: 5.2 nM | Kd [11, 46]: 653 nM

Sequence: RMKWMMAMRY
Kd ([26]; source organism: Influenza A virus (A/chicken/Fujian/25/00(H9N2))): 131 nM

Sequence: AWENTVVDL
Kd [24, 42]: 1500 nM
